Results taken from the supplement of paper PMC10567573.

B1: SOAT1 (parent)
chain: VYYIFERLCAPLFRNIKQEPFSAR
B2: TRIM55 (parent)
chain: YLPTRGGTTMASGGRFRCPSCRHE

Variants of: B1
Assay: protein stability index of a GFP-peptide fusion (GPS, HEK-293T) (PSI 1-6); higher = more stable
Settings: c terminus: a fixed tail appended
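Also: lentivirally expressed fusions sorted by FACS into six bins by GFP to DsRed ratio, PSI derived from sequencing read proportions per bin multiplied by bin number.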

Protein stability index, by site and new letter:
P11: G 2.08, C 1.09, I 2.89, W 2.77, D 1.87, V 2.39, R 2.24, Q 1.25, Y 1.83, N 1.86, E 1.76, A 1.17
R14: Q 3.82, D 3.52, E 1.5
R24: M 2.64, L 2.79, D 3.13, I 2.73
S22: D 2.88, I 3.73, F 2.66, H 1.92, Q 1.46, K 1.96, N 2.3, G 2.8, E 2.61, W 2.91
Q18: M 2.92, T 1.91, N 1.52, H 3.42, P 2.92
L12: Y 2.16, P 5.2, M 2.71, T 1.97, N 1.98, E 2.07
A10: S 2.39, T 2.74, V 3.16, R 1.53, H 3.56
I16: W 3.96, C 2.46, G 2.33, M 1.75
C9: K 1.6, L 1.67, T 2.26, I 1.31, W 4.32, S 2.34, N 1.04
Y3: C 3.23, H 1.71, W 2.93, N 2.11, S 3.46, P 2.12
F13: S 2.09, P 3.2, A 1.96, I 2.64
R7: D 4.14, M 1.08
P20: A 2.34, Q 2.44, Y 4.1, N 2.53, W 2.79, G 2.71, K 1.88
E6: N 2.65, M 2.41, K 2.23, A 2.38, W 2.59
A23: R 1.9, C 1.65, I 2.1, Q 2.02
Y2: W 2.26, K 1.5, R 1.59, I 3.75, H 2.26
F21: C 1.99, V 2.97, I 2.94, A 2.07, P 2.26, S 2.13, E 2.39, Q 1.77, L 1.7, D 2.17, N 1.36
N15: Y 1.85, T 3.46, I 2.5, V 1.82, F 1.67, W 2.15, A 2.28, C 2.61, R 2
F5: N 1.49, V 3.45, H 1.56, Y 1.81, A 1.68, M 1.9, S 1.97
V1: G 1.7, N 2.22, E 1.3, Q 1.32
I4: Y 2.11, D 1.55, G 1.71, E 1.82, S 2.12, P 1.64
E19: M 1.88, T 2.27, Y 2.41, L 1.52, K 2.4, G 2.86, P 2.76, F 1.58, I 2.6
L8: D 3.16
K17: Q 2.52, I 1.47, R 2.04, E 3.03, V 3.1, M 2.78

Variants of: B2
Assay: as above
Settings: c terminus: a fixed tail appended

Protein stability index, by site and new letter:
G14: N 2.42, A 2.23, L 1.29, C 3.76, Y 1.69, K 1.83, T 2.89, F 2.04, Q 1.26, M 2.76
E24: H 1.47, I 1.41, L 1.57, C 2.07, D 1.93, V 2.29, S 1.53, M 1.6, A 1.59, T 1.78, Q 3.06, Y 2.55, P 2.29, K 2.04, G 1.06
R17: N 2.24, I 1.69, C 1.6, L 2.6, H 2.56, K 1.48, S 2.9, T 2.96
R15: H 1.39, A 2.02, C 2.02, K 2.05, F 2.76, T 2.53, M 1.31, Q 1.58, Y 1.44, D 2.78, V 1.24, E 2.35, L 1.81, P 1.49, S 1.65
R22: I 2.4, W 2.01, C 1.97, F 2.38, N 2.4, V 2.25, S 3.2, D 2.9, G 2.79, K 2.94, E 4.06, A 2.59, H 2.4, P 3.78, Y 2.07, Q 2.12
C21: M 2.51, D 3.62, A 3.98, W 2.21, N 3.96, L 2.86, I 3.09, E 4.03, H 3, Y 2.35, T 3.14, S 3.03
S20: M 1.04, H 2.13, W 1.12, T 2.48, N 1.93, L 2.09, E 2.01, K 2.27, G 1.92, Y 1.46, R 2.04, P 2.39, D 1.98, Q 1.8
G13: W 1.12, K 1.38, I 1.33, H 2.62, T 1.88, P 1.44, D 2.37, Q 1.51, E 2.25, F 2.39, R 1, M 1.96, A 2.47, N 1.89
T9: M 1.36, G 1.26, F 2.12, N 2.01, A 2.77, E 2.66, R 1.82, Q 1.11, P 2.49
H23: M 1.52, P 3.14, K 3.39, C 3.34, S 3.03, V 2
P19: G 2.34, S 2.49, W 3.12, N 2.6, Q 3.5, E 2.01, Y 2, T 2.18, I 1.38, R 2.78, V 1.78, M 1.61, D 3.35
T8: Y 4.26
A11: F 1.98, T 2.46, I 1.05, M 1.18, H 1.83, K 1.36, Y 3.34, E 2, R 1.37, Q 1.96, N 1.65
M10: G 2.61, C 2.91, Q 2.03, T 4.08, Y 1.89, P 2.5, A 2.85, W 2.58, E 1.97, I 2.27, K 1.11, N 1.96, V 1.65
S12: G 2.1, M 1.76, D 1.34, Y 1.28, I 2.18, H 2.29, E 2.09, A 1.87, C 1.41, T 1.49, P 2.32, V 2.42
C18: W 1.7, K 3.34, V 2.71, L 3.47, S 3.61, P 3.56, M 2.4, Y 2.44, N 3.15, H 2.94, F 2.43, T 3.74, G 3.27, E 2.98
F16: V 2.71, Y 1.57, C 3.06, A 3.43, K 2.01, T 2.98, N 2.33, M 1.74, S 3.94
